One data set has as its target RecQ E. coli (Escherichia coli, UniProt P15043 1-609). The data set is described as follows: fluorescence anisotropy; IC50 of CdCl2 inhibiting binding (not protein affinity); 200 nM protein, 5 nM DNA; 50 mM Tris-HCl pH 8.0, 50 mM NaCl, 1 mM DTT, 25 C; 200 nM protein, 5 nM 3'-fluorescein DNA. Conditions: protein: recombinant; label: 3'-fluorescein.
Data set [1] deals with T1, BLM642-1290 (human, UniProt P54132 642-1290). Described as above. Conditions: protein: recombinant; label: 3'-fluorescein.
The next data set concerns the target BLM full-length (human, UniProt P54132 1-1417). The data set is described as above. The note with it: protein: recombinant; (Ni-NTA purified); label: 3'-fluorescein.
Data set [2] concerns the target T1, BLM642-1290. The experiment in a line: fluorescence anisotropy; 0.5 mM NEM, 2 mM DTT, no Cd2+; 50 mM Tris-HCl pH 8.0, 50 mM NaCl, 1 mM DTT, 25 C; 200 nM protein, 5 nM 3'-fluorescein DNA. The note with it: protein: recombinant; label: 3'-fluorescein. On the technique in general: Polarisation of emitted light reports the rotation of a fluorescent probe.

Consider three molecules from publication PMC4872126, “Mechanistic insight into cadmium-induced inactivation of the Bloom protein”.

T1 sequence (P54132 642-1290): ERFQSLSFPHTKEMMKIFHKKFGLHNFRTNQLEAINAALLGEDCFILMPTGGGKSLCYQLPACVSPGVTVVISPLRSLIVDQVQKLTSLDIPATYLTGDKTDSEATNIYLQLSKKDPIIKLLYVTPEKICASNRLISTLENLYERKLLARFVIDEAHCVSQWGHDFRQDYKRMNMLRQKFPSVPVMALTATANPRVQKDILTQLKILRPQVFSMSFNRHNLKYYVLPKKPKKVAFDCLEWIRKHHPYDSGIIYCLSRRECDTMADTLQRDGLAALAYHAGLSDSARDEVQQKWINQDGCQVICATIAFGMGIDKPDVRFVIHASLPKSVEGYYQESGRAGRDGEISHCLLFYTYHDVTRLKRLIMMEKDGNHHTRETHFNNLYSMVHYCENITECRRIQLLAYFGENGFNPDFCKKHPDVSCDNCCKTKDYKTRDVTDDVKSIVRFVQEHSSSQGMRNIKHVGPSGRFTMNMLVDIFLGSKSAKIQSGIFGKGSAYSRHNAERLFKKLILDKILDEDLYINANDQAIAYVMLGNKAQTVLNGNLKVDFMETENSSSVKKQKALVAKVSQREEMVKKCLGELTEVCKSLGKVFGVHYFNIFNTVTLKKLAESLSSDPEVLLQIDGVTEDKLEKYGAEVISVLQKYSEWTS
Chain of RecQ E. coli (P15043 whole entry): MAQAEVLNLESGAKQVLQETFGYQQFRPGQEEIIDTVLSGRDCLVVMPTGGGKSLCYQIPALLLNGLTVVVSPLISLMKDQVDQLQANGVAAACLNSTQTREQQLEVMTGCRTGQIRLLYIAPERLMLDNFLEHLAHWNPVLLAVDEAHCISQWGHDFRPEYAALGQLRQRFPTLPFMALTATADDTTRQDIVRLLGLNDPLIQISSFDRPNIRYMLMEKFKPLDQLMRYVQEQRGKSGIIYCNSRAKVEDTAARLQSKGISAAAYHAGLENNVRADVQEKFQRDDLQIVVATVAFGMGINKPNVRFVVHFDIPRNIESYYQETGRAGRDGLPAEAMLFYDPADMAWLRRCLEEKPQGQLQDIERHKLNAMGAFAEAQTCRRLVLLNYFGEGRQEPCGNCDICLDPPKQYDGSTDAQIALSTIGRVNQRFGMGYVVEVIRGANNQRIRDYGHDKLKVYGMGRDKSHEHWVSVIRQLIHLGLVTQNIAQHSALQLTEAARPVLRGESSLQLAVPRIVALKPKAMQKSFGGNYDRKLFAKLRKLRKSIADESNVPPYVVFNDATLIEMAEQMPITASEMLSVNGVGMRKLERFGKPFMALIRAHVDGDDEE
Chain of BLM full-length (P54132 whole entry): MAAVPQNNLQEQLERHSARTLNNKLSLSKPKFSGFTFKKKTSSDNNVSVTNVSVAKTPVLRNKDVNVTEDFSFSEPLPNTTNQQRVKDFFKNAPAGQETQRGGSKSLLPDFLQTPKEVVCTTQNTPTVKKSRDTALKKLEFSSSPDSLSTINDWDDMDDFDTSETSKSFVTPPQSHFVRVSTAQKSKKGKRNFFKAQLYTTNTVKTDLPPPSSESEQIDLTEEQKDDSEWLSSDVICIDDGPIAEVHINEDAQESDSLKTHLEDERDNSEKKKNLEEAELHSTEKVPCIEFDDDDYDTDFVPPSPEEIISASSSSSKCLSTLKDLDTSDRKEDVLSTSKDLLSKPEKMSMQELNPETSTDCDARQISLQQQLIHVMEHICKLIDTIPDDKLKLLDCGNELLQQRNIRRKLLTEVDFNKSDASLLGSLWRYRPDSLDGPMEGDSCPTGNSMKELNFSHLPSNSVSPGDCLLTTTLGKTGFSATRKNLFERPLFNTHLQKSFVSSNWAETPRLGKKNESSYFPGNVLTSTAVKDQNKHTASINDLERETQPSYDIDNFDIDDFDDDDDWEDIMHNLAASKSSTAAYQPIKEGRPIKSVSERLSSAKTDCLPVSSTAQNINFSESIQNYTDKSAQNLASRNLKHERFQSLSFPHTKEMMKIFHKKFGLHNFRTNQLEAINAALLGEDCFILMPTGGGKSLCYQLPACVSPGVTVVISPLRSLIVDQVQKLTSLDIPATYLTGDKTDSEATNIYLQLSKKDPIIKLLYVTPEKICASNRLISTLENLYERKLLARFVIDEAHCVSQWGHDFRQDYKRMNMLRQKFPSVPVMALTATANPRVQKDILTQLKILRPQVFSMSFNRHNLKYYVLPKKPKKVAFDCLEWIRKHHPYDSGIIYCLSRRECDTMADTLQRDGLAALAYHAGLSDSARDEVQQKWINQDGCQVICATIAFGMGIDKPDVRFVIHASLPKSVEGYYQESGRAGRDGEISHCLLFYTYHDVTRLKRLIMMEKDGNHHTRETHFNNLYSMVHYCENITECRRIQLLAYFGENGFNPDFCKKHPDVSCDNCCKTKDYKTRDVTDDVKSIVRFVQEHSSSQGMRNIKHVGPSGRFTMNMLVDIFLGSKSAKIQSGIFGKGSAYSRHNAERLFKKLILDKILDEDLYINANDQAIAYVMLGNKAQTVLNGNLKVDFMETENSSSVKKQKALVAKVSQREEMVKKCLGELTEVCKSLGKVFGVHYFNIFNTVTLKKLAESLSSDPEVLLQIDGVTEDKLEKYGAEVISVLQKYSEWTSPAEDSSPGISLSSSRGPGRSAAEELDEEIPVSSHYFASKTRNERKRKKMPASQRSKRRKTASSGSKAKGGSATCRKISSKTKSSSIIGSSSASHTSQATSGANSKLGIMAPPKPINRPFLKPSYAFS

B1: F-40 (ssDNA)
DNA: GCCCTGCTGCCGACCAACGATGGTTACATTCCCGCTGCTG
On to B1, for which the results for the IC50 in the data set with RecQ E. coli, in the data set with BLM642-1290 [1] and in the data set with BLM full-length were 39.2 µM, 9.98 µM and 6.64 µM, respectively.

B2: F-18 (ssDNA)
DNA: GCCTCGCTGCCGTCGCCA
B2: in the data set with BLM642-1290 [2], the binding result is recorded as “binds”.

B3: F-24 ss (ssDNA)
DNA: GCCCTGCTGCCGACCAACGAAGGT
As for B3, the IC50 with RecQ E. coli worked out at 40.2 µM; with BLM642-1290 [1] it was 10.2 µM; with BLM full-length, 6.63 µM.

The IC50 is the midpoint of a concentration-inhibition curve.
